For this experiment, the target named is citrate synthase (CS) from porcine heart (porcine) (UniProt P00889).

The values that follow come from article PMC7865324.

Chain of UniProt P00889 (P00889 28-464): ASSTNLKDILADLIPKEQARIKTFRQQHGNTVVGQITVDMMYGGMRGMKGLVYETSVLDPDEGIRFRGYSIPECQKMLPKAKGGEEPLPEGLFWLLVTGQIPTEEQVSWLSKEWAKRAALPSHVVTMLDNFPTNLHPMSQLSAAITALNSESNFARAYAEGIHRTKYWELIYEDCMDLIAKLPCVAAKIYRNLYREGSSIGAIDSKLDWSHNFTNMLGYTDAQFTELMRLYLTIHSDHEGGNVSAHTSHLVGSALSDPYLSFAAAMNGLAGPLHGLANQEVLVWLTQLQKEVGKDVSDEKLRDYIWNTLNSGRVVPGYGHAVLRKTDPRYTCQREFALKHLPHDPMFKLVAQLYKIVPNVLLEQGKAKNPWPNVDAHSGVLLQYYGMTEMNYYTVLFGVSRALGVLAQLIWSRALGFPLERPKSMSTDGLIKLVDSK

Substance “recombinant ZnJ6 (Cre06.g251716.t1.2) fused to the streptavidin-binding peptide (SBP) tag (natural protein)” had a citrate synthase thermal aggregation assay (OD360, 42 °C, 1 h): percent of CS kept soluble, ZnJ6:CS 0.1:1 to 10:1 of 86%.
